In US20130251719A1:

Target: PCV2-ORF2-antigens coated on ELISA plates (porcine circovirus type 2 (PCV2))
Assay: competitive ELISA on PCV2-ORF2-antigens, competitor HRP-conjugated anti-PCV2 mab; residual signal of the mab

## positive control of commercialized testkit (Ingenasa)
  OD: 0.343 OD at 450 nm
